Assays:
HeLa Kyoto [1] = experiment: thermal stability score vs G1/S (z-score of summed log2 fold changes over temperatures); higher = more thermally stable than in G1/S
HeLa Kyoto [2] = experiment: solubility in G1/S (NP-40 vs SDS abundance) (log2 ratio); higher = more soluble; details: cell cycle stage: G1/S
HeLa Kyoto [3] = experiment: melting temperature (median over replicates), in situ; higher = more thermally stable
HeLa Kyoto [4] = experiment: solubility change mitosis vs G1/S (difference of NP-40 vs SDS log2 ratios) (log2 ratio difference); higher = more soluble in mitosis
[5] = cell cycle stage: early G1 (4.5 h after nocodazole release)
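Throughout, for melting temperature (median over replicates), in situ: HeLa Kyoto cells synchronized by double thymidine or nocodazole block, proteins quantified by TMT10plex mass spectrometry, three independent biological replicates.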
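Throughout, for solubility change mitosis vs G1/S (difference of NP-40 vs SDS log2 ratios): synchronized HeLa Kyoto cells (double thymidine block for G1/S, nocodazole release for mitosis), protein amounts in NP-40 versus SDS lysates quantified by mass spectrometry, three biological replicates.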
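Throughout, for solubility in G1/S (NP-40 vs SDS abundance): HeLa Kyoto cells arrested at G1/S by double thymidine block, proteins quantified by TMT10plex mass spectrometry in mild NP-40 versus SDS extracts, three biological replicates.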
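Throughout, for thermal stability score vs G1/S (z-score of summed log2 fold changes over temperatures): synchronized HeLa Kyoto cells, proteins quantified by TMT10plex mass spectrometry, three biological replicates, mitosis taken 0.5 h after nocodazole release, G1/S directly after double thymidine block.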

| Sequence | thermal stability score (HeLa Kyoto [1]; [5]) | thermal stability score (HeLa Kyoto [1]; cell cycle stage: mitosis) | solubility in G1/S (log2) (HeLa Kyoto [2]) | melting temperature (HeLa Kyoto [3]; cell cycle stage: G1/S) [°C] | melting temperature (HeLa Kyoto [3]; cell cycle stage: mitosis) [°C] | solubility change mitosis (log2) (HeLa Kyoto [4]) |
| --- | --- | --- | --- | --- | --- | --- |
| MRRFLRPGHDPVRERLKRDLFQFNKTVEHGFPHQPSALGYSPSLRILAIGTRSGAIKLYGAPGVEFMGLHQENNAVTQIHLLPGQCQLVTLLDDNSLHLWSLKVKGGASELQEDESFTLRGPPGAAPSATQITVVLPHSSCELLYLGTESGNVFVVQLPAFRALEDRTISSDAVLQRLPEEARHRRVFEMVEALQEHPRDPNQILIGYSRGLVVIWDLQGSRVLYHFLSSQQLENIWWQRDGRLLVSCHSDGSYCQWPVSSEAQQPEPLRSLVPYGPFPCKAITRILWLTTRQGLPFTIFQGGMPRASYGDRHCISVIHDGQQTAFDFTSRVIGFTVLTEADPAATFDDPYALVVLAEEELVVIDLQTAGWPPVQLPYLASLHCSAITCSHHVSNIPLKLWERIIAAGSRQNAHFSTMEWPIDGGTSLTPAPPQRDLLLTGHEDGTVRFWDASGVCLRLLYKLSTVRVFLTDTDPNENFSAQGEDEWPPLRKVGSFDPYSDDPRLGIQKIFLCKYSGYLAVAGTAGQVLVLELNDEAAEQAVEQVEADLLQDQEGYRWKGHERLAARSGPVRFEPGFQPFVLVQCQPPAVVTSLALHSEWRLVAFGTSHGFGLFDHQQRRQVFVKCTLHPSDQLALEGPLSRVKSLKKSLRQSFRRMRRSRVSSRKRHPAGPPGEAQEGSAKAERPGLQNMELAPVQRKIEARSAEDSFTGFVRTLYFADTYLKDSSRHCPSLWAGTNGGTIYAFSLRVPPAERRMDEPVRAEQAKEIQLMHRAPVVGILVLDGHSVPLPEPLEVAHDLSKSPDMQGSHQLLVVSEEQFKVFTLPKVSAKLKLKLTALEGSRVRRVSVAHFGSRRAEDYGEHHLAVLTNLGDIQVVSLPLLKPQVRYSCIRREDVSGIASCVFTKYGQGFYLISPSEFERFSLSTKWLVEPRCLVDSAETKNHRPGNGAGPKKAPSRARNSGTQSDGEEKQPGLVMERALLSDERVLKEIQSTLEGDRGSGNWRSHRAAVGCSLSNGGAE [LLGL2] | -1.83 | -2.52 | -0.27 | 51.1 | 51.5 | -0.0143 |
| MRRLGPFHPRVHWAAPPSLSSGLHRLLFLRGTRIPSSTTLSPPRHDSLSLDGGTVNPPRVREPTGREAFGPSPASSDWLPARWRNGRGGRPRARLCSGWTAAEEARRNPTLGGLLGRQRLLLRMGGGRLGAPMERHGRASATSVSSAGEQAAGDPEGRRQEPLRRRASSASVPAVGASAEGTRRDRLGSYSGPTSVSRQRVESLRKKRPLFPWFGLDIGGTLVKLVYFEPKDITAEEEEEEVESLKSIRKYLTSNVAYGSTGIRDVHLELKDLTLCGRKGNLHFIRFPTHDMPAFIQMGRDKNFSSLHTVFCATGGGAYKFEQDFLTIGDLQLCKLDELDCLIKGILYIDSVGFNGRSQCYYFENPADSEKCQKLPFDLKNPYPLLLVNIGSGVSILAVYSKDNYKRVTGTSLGGGTFFGLCCLLTGCTTFEEALEMASRGDSTKVDKLVRDIYGGDYERFGLPGWAVASSFGNMMSKEKREAVSKEDLARATLITITNNIGSIARMCALNENINQVVFVGNFLRINTIAMRLLAYALDYWSKGQLKALFSEHEGYFGAVGALLELLKIP [PANK2] | 0.0148 | 0.653 | 0.04 | 53.1 | 55.1 | -0.196 |
| MRRVTLFLNGSPKNGKVVAVYGTLSDLLSVASSKLGIKATSVYNGKGGLIDDIALIRDDDVLFVCEGEPFIDPQTDSKPPEGLLGFHTDWLTLNVGGRYFTTTRSTLVNKEPDSMLAHMFKDKGVWGNKQDHRGAFLIDRSPEYFEPILNYLRHGQLIVNDGINLLGVLEEARFFGIDSLIEHLEVAIKNSQPPEDHSPISRKEFVRFLLATPTKSELRCQGLNFSGADLSRLDLRYINFKMANLSRCNLAHANLCCANLERADLSGSVLDCANLQGVKMLCSNAEGASLKLCNFEDPSGLKANLEGANLKGVDMEGSQMTGINLRVATLKNAKLKNCNLRGATLAGTDLENCDLSGCDLQEANLRGSNVKGAIFEEMLTPLHMSQSVR [KCTD9] | -0.393 | -1.4 | 0.0627 | 52.3 | 51 | -0.2 |
| MRSLLLLSAFCLLEAALAAEVKKPAAAAAPGTAEKLSPKAATLAERSAGLAFSLYQAMAKDQAVENILVSPVVVASSLGLVSLGGKATTASQAKAVLSAEQLRDEEVHAGLGELLRSLSNSTARNVTWKLGSRLYGPSSVSFADDFVRSSKQHYNCEHSKINFRDKRSALQSINEWAAQTTDGKLPEVTKDVERTDGALLVNAMFFKPHWDEKFHHKMVDNRGFMVTRSYTVGVMMMHRTGLYNYYDDEKEKLQIVEMPLAHKLSSLIILMPHHVEPLERLEKLLTKEQLKIWMGKMQKKAVAISLPKGVVEVTHDLQKHLAGLGLTEAIDKNKADLSRMSGKKDLYLASVFHATAFELDTDGNPFDQDIYGREELRSPKLFYADHPFIFLVRDTQSGSLLFIGRLVRPKGDKMRDEL [SERPINH1] | 4.47 | 4.77 | 0.232 | 54.2 | 55.2 | -0.0819 |
| MRSRSNSGVRLDGYARLVQQTILCYQNPVTGLLSASHEQKDAWVRDNIYSILAVWGLGMAYRKNADRDEDKAKAYELEQNVVKLMRGLLQCMMRQVAKVEKFKHTQSTKDSLHAKYNTATCGTVVGDDQWGHLQVDATSLFLLFLAQMTASGLRIIFTLDEVAFIQNLVFYIEAAYKVADYGMWERGDKTNQGIPELNASSVGMAKAALEAIDELDLFGAHGGRKSVIHVLPDEVEHCQSILFSMLPRASTSKEIDAGLLSIISFPAFAVEDVNLVNVTKNEIISKLQGRYGCCRFLRDGYKTPREDPNRLHYDPAELKLFENIECEWPVFWTYFIIDGVFSGDAVQVQEYREALEGILIRGKNGIRLVPELYAVPPNKVDEEYKNPHTVDRVPMGKVPHLWGQSLYILSSLLAEGFLAAGEIDPLNRRFSTSVKPDVVVQVTVLAENNHIKDLLRKHGVNVQSIADIHPIQVQPGRILSHIYAKLGRNKNMNLSGRPYRHIGVLGTSKLYVIRNQIFTFTPQFTDQHHFYLALDNEMIVEMLRIELAYLCTCWRMTGRPTLTFPISRTMLTNDGSDIHSAVLSTIRKLEDGYFGGARVKLGNLSEFLTTSFYTYLTFLDPDCDEKLFDNASEGTFSPDSDSDLVGYLEDTCNQESQDELDHYINHLLQSTSLRSYLPPLCKNTEDRHVFSAIHSTRDILSVMAKAKGLEVPFVPMTLPTKVLSAHRKSLNLVDSPQPLLEKVPESDFQWPRDDHGDVDCEKLVEQLKDCSNLQDQADILYILYVIKGPSWDTNLSGQHGVTVQNLLGELYGKAGLNQEWGLIRYISGLLRKKVEVLAEACTDLLSHQKQLTVGLPPEPREKIISAPLPPEELTKLIYEASGQDISIAVLTQEIVVYLAMYVRAQPSLFVEMLRLRIGLIIQVMATELARSLNCSGEEASESLMNLSPFDMKNLLHHILSGKEFGVERSVRPIHSSTSSPTISIHEVGHTGVTKTERSGINRLRSEMKQMTRRFSADEQFFSVGQAASSSAHSSKSARSSTPSSPTGTSSSDSGGHHIGWGERQGQWLRRRRLDGAINRVPVGFYQRVWKILQKCHGLSIDGYVLPSSTTREMTPHEIKFAVHVESVLNRVPQPEYRQLLVEAIMVLTLLSDTEMTSIGGIIHVDQIVQMASQLFLQDQVSIGAMDTLEKDQATGICHFFYDSAPSGAYGTMTYLTRAVASYLQELLPNSGCQMQ [PHKA2] | 0.315 | -0.217 | 0.00161 | 52.6 | 51.7 | -0.229 |

Source: the supplement of paper PMC5998384
